Test results published in publication PMC5263247, “Lipid Signaling via Pkh1/2 Regulates Fungal CO2 Sensing through the Kinase Sch9” (mBio, 2017).

Biological target: T1, ScSch9-His (S. cerevisiae, UniProt P11792 1-824)
T1 construct: Sch9 kinase of S. cerevisiae; SCH9 synthesized with a C-terminal 6xHis tag and cloned into the E. coli expression vector p41; also called recombinant ScSch9-His; source: E. coli BL21(DE3), purified (IMAC, Ni-NTA Sepharose); not shown: 6xHis, C-terminal, kept
T1 sequence (looked up): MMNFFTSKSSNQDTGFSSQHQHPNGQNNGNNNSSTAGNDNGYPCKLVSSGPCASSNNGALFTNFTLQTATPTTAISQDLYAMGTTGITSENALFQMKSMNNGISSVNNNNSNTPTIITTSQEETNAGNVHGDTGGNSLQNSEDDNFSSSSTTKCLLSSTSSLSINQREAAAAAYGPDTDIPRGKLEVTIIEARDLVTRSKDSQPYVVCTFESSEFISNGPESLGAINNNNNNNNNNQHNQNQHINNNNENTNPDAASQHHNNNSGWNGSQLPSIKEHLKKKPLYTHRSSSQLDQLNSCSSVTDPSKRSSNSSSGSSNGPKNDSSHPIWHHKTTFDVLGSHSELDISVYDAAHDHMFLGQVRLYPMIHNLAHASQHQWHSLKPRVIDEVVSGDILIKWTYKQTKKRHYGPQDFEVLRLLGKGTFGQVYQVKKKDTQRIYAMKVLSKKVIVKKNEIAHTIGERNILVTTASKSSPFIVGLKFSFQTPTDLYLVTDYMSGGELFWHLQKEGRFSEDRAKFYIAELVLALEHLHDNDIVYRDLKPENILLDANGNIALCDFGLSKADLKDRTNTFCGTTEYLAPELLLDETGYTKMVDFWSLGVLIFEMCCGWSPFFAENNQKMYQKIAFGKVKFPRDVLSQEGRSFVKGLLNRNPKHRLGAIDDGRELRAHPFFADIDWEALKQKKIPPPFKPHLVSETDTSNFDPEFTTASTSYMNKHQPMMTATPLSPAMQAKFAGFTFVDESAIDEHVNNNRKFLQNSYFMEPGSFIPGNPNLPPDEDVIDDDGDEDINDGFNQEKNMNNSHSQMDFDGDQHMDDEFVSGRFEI
Assay: co-IP; endogenous ScCst6 precipitated from S. cerevisiae WT lysate with rabbit anti-Cst6 antibody, bound to protein-G Sepharose beads, washed (IP buffer plus 500 mM NaCl), then incubated with 20 µg recombinant ScSch9-His for 3 h at 4°C; extensive washing; Western blot (anti-ScCst6, anti-6xHis)
Conditions: both partners purified

B1: ScCst6 (endogenous) (natural protein, UniProt P40535 1-587, looked up)
chain: MFTGQEYHSVDSNSNKQKDNNKRGIDDTSKILNNKIPHSVSDTSAAATTTSTMNNSALSRSLDPTDINYSTNMAGVVDQIHDYTTSNRNSLTPQYSIAAGNVNSHDRVVKPSANSNYQQAAYLRQQQQQDQRQQSPSMKTEEESQLYGDILMNSGVVQDMHQNLATHTNLSQLSSTRKSAPNDSTTAPTNASNIANTASVNKQMYFMNMNMNNNPHALNDPSILETLSPFFQPFGVDVAHLPMTNPPIFQSSLPGCDEPIRRRRISISNGQISQLGEDIETLENLHNTQPPPMPNFHNYNGLSQTRNVSNKPVFNQAVPVSSIPQYNAKKVINPTKDSALGDQSVIYSKSQQRNFVNAPSKNTPAESISDLEGMTTFAPTTGGENRGKSALRESHSNPSFTPKSQGSHLNLAANTQGNPIPGTTAWKRARLLERNRIAASKCRQRKKVAQLQLQKEFNEIKDENRILLKKLNYYEKLISKFKKFSKIHLREHEKLNKDSDNNVNGTNSSNKNESMTVDSLKIIEELLMIDSDVTEVDKDTGKIIAIKHEPYSQRFGSDTDDDDIDLKPVEGGKDPDNQSLPNSEKIK
notes: Transcription factor Cst6 (ATF/CREB family) of S. cerevisiae, endogenous protein of the wild type (BY4741); also called endogenous ScCst6; source: endogenous, S. cerevisiae WT lysate, immunopurified with anti-Cst6 antibody on protein-G Sepharose beads
binding result: binds
